Assay results: patent US20250011410A1 (INVETX, published 2025)
Where “and” joins values, the source holds several entries; their conditions need not be identical. Equal entries are not always repeated.

Experiments:
[1] = target: T1, canine NGF tagged at the C-terminus with the Flag tag (canine, UniProt A0A8I3PYI3 122-241); test: SPR off-rate assay, Fab-SASA on BSA chip
T1 construct: mature; Expressed with baculovirus technology; also called feline NGF (processed form identical)
T1 sequence (A0A8I3PYI3 entry or part of it): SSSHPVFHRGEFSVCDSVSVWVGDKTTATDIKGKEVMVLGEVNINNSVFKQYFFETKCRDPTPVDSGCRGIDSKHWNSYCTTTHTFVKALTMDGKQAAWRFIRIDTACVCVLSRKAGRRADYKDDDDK

[2] = target: T1, canine NGF tagged at the C-terminus …; test: SPR off-rate screen, Fab-SASA on BSA chip
[3] = target: T2, canine NGF tagged at the C-terminus with the Flag tag (canine, UniProt A0A8I3PYI3 122-241); test: SPR, Biacore T200; antibody captured on anti-feline CM5 chip, NGF as analyte; 1:1 model
T2 construct: mature; 'mature' rests on the words 'processed form'; also called feline NGF (processed form identical)
T2 sequence (A0A8I3PYI3 entry or part of it): as above

Row | Binder | Kd [1] | Ratio (KD) WT/clones [1] | koff [1] | kon [1] | Kd [2] | Ratio WT-kd/clone-kd [2] | koff [2] | kon [2] | Kd [3] [nM] | koff [3] [s⁻¹] | kon [3] [M⁻¹ s⁻¹] | Ratio (kd) WT/clones [1]
1 | felinized clone 101 Fab-SASA (wild-type) (Fab, V domains shown, not shown: small tags and cut ends) VH: DVQLVESGGDLVKPGGSLRLTCVASGLSLTSSSMSWVRQAPGKGLQWVSTIYSNGGTYYTDSVKGRFTISKDNAENTLYLQMNNLKTEDTATYYCASIYYYDADYLHWYFDFWGQGALVTVSS VL: EIQMTQSPTSLSASVGDRVTITCRASEGISNNLSWYQQTPGKAPKLLIYATSNLHSGVPSRFSGSGSGTDFTLTISSLQPEDFATYYCQQGYKWPLTFGGGTKLEITR | 3.15 nM and 3.78 nM and 3.47 nM | 0 | 0.00179 s⁻¹ and 0.00158 s⁻¹ and 0.00169 s⁻¹ | 569000 M⁻¹ s⁻¹ and 419000 M⁻¹ s⁻¹ and 494000 M⁻¹ s⁻¹ | 2.62 nM and 2.65 nM and 2.69 nM | 1 | 0.000939 s⁻¹ and 0.000943 s⁻¹ and 0.000947 s⁻¹ | 359000 M⁻¹ s⁻¹ and 355000 M⁻¹ s⁻¹ and 351000 M⁻¹ s⁻¹ | – | – | – | –
2 | felinized clone 101 (antibody, V domains shown) VH: DVQLVESGGDLVKPGGSLRLTCVASGLSLTSSSMSWVRQAPGKGLQWVSTIYSNGGTYYTDSVKGRFTISKDNAENTLYLQMNNLKTEDTATYYCASIYYYDADYLHWYFDFWGQGALVTVSS VL: EIQMTQSPTSLSASVGDRVTITCRASEGISNNLSWYQQTPGKAPKLLIYATSNLHSGVPSRFSGSGSGTDFTLTISSLQPEDFATYYCQQGYKWPLTFGGGTKLEIT | – | – | – | – | – | – | – | – | 1.75 | 0.00138 | 784000 | –
3 | SC-184_76-Arg (antibody, V domains shown, SC-184_76 containing the G55R mutation in VH; feline antibody captured on an anti-feline chip) VH: DVQLVESGGDLVKPGGSLRLTCVASGLSLTSDSMSWVRQAPGKGLQWVSTLWSNRGTYYTDSVKGRFTISKDNAENTLYLQMNNLKTEDTATYYCASIYYYEADYLHWYFDFWGQGALVTVSS VL: EIQMTQSPTSLSASVGDRVTITCRASEGIANNLSWYQQTPGKAPKLLIYATSNLHSGVPSRFSGSGSGTDFTLTISSLQPEDFATYYCQQGFKWPLTFGGGTKLEIT | – | – | – | – | – | – | – | – | 0.154 | 9.01e-05 | 585000 | –
4 | AHF17607 (Fab, V domains shown, not shown: small tags and cut ends) VH: DVQLVESGGDLVKPGGSLRLTCVASGLSLTSSSMVWVRQAPGKGLQWVSTIYSNRGTYYTDSVKGRFTISKDNAENTLYLQMNNLKTEDTATYYCASIYYYDADYLHWYFDEWGQGALVTVSS VL: EIQMTQSPTSLSASVGDRVTITCRASEGISNNLSWYQQTPGKAPKLLIYATSILHSGVPSRFSGSGSGTDFTLTISSLQPEDFATYYCQQGYKWPLTFGGGTKLEITR | ≤ 0.00442 nM | 781 | ≤ 1e-06 s⁻¹ | 226000 M⁻¹ s⁻¹ | – | – | – | – | – | – | – | 1680
5 | AHF17603 (Fab, V domains shown, not shown: small tags and cut ends) VH: DVQLVESGGDLVKPGGSLRLTCVASGLSLTSSSMVWVRQAPGKGLQWVSTIYSNGGTYYTDSVKGRFTISKDNAENTLYLQMNNLKTEDTATYYCASIYYYDADYLHWYFDEWGQGALVTVSS VL: EIQMTQSPTSLSASVGDRVTITCRASEGIANNLSWYQQTPGKAPKLLIYATSILHSGVPSRFSGSGSGTDFTLTISSLQPEDFATYYCQQGYKWPLTFGGGTKLEITR | 0.664 nM | 5.2 | 0.000245 s⁻¹ | 368000 M⁻¹ s⁻¹ | – | – | – | – | – | – | – | 6.88
6 | AHF17609 (Fab, V domains shown, not shown: small tags and cut ends) VH: DVQLVESGGDLVKPGGSLRLTCVASGLSLTSSSMVWVRQAPGKGLQWVSTIYSNRGTYYTDSVKGRFTISKDNAENTLYLQMNNLKTEDTATYYCASIYYYDADYLHWYFDFWGQGALVTVSS VL: EIQMTQSPTSLSASVGDRVTITCRASEGIANNLSWYQQTPGKAPKLLIYATSILHSGVPSRFSGSGSGTDFTLTISSLQPEDFATYYCQQGYKWPLTFGGGTKLEITR | ≤ 0.00439 nM | 788 | ≤ 1e-06 s⁻¹ | 228000 M⁻¹ s⁻¹ | – | – | – | – | – | – | – | 1680
7 | AHF17605 (Fab, V domains shown, not shown: small tags and cut ends, Fab-SASA, combinatorial library) VH: DVQLVESGGDLVKPGGSLRLTCVASGLSLTSSSMVWVRQAPGKGLQWVSTIYSNGGTYYTDSVKGRFTISKDNAENTLYLQMNNLKTEDTATYYCAQIYYYDADYLHWYFDFWGQGALVTVSS VL: EIQMTQSPTSLSASVGDRVTITCRASEGIANNLSWYQQTPGKAPKLLIYATSILHSGVPSRFSGSGSGTDFTLTISSLQPEDFATYYCQQGYKWPLTFGGGTKLEITR | 0.82 nM | 4.21 | 0.000207 s⁻¹ | 253000 M⁻¹ s⁻¹ | – | – | – | – | – | – | – | 8.14
8 | AHF17608 (Fab, V domains shown, not shown: small tags and cut ends) VH: DVQLVESGGDLVKPGGSLRLTCVASGLSLTSSSMVWVRQAPGKGLQWVSTIYSNRGTYYTDSVKGRFTISKDNAENTLYLQMNNLKTEDTATYYCASIYYYDADYLHWYFDFWGQGALVTVSS VL: EIQMTQSPTSLSASVGDRVTITCRASEGIANNLSWYQQTPGKAPKLLIYATSVLHSGVPSRFSGSGSGTDFTLTISSLQPEDFATYYCQQGYKWPLTFGGGTKLEITR | ≤ 0.00439 nM | 788 | ≤ 1e-06 s⁻¹ | 228000 M⁻¹ s⁻¹ | – | – | – | – | – | – | – | 1680
9 | AHF17610 (Fab, V domains shown, not shown: small tags and cut ends) VH: DVQLVESGGDLVKPGGSLRLTCVASGLSLTSSSMVWVRQAPGKGLQWVSTIYSNRGTYYTDSVKGRFTISKDNAENTLYLQMNNLKTEDTATYYCASIYYYDADYLHWYFDFWGQGALVTVSS VL: EIQMTQSPTSLSASVGDRVTITCRASEGIANNLSWYQQTPGKAPKLLIYATSNLHSGVPSRFSGSGSGTDFTLTISSLQPEDFATYYCQQGYKWPLTFGGGTKLEITR | ≤ 0.00549 nM | 629 | ≤ 1e-06 s⁻¹ | 182000 M⁻¹ s⁻¹ | – | – | – | – | – | – | – | 1680
10 | AHF17602 (antibody, V domains shown, also called AIF17602) VH: DVQLVESGGDLVKPGGSLRLTCVASGLSLTSSSMVWVRQAPGKGLQWVSTIYSNRGTYYTDSVKGRFTISKDNAENTLYLQMNNLKTEDTATYYCASIYYYDADYLHWYFDFWGQGALVTVSS VL: EIQMTQSPTSLSASVGDRVTITCRASEGIANNLSWYQQTPGKAPKLLIYATSNLHSGVPSRFSGSGSGTDFTLTISSLQPEDFATYYCQQGYKWPLTFGGGTKLEIT | – | – | – | – | – | – | – | – | 0.161 | 6.32e-05 | 394000 | –
11 | AHF17606 (Fab, V domains shown, not shown: small tags and cut ends) VH: DVQLVESGGDLVKPGGSLRLTCVASGLSLTSSSMVWVRQAPGKGLQWVSTIYSNRGTYYTDSVKGRFTISKDNAENTLYLQMNNLKTEDTATYYCASIYYYDADYLHWYFDFWGQGALVTVSS VL: EIQMTQSPTSLSASVGDRVTITCRASEGIANNLSWYQQTPGKAPKLLIYATSNLHSGVPSRFSGSGSGTDFTLTISSLQPEDFATYYCQQGYKWPLTFGGGTKLEITR | 0.107 nM | 32.3 | 2.01e-05 s⁻¹ | 187000 M⁻¹ s⁻¹ | – | – | – | – | – | – | – | 83.8
12 | AHF17604 (Fab, V domains shown, not shown: small tags and cut ends, Fab-SASA, combinatorial library) VH: DVQLVESGGDLVKPGGSLRLTCVASGLSLTSSSMVWVRQAPGKGLQWVSTIYSNRGTYYTDSVKGRFTISKDNAENTLYLQMNNLKTEDTATYYCAQIYYYDADYLHWYFDFWGQGALVTVSS VL: EIQMTQSPTSLSASVGDRVTITCRASEGIQNNLSWYQQTPGKAPKLLIYATSILHSGVPSRFSGSGSGTDFTLTISSLQPEDFATYYCQQGYKWPLTFGGGTKLEITR | 0.321 nM | 10.8 | 4.66e-05 s⁻¹ | 145000 M⁻¹ s⁻¹ | – | – | – | – | – | – | – | 36.2
13 | SC-184_76 (antibody, IgG1a, V domains shown) VH: DVQLVESGGDLVKPGGSLRLTCVASGLSLTSDSMSWVRQAPGKGLQWVSTLWSNGGTYYTDSVKGRFTISKDNAENTLYLQMNNLKTEDTATYYCASIYYYEADYLHWYFDFWGQGALVTVSS VL: EIQMTQSPTSLSASVGDRVTITCRASEGIANNLSWYQQTPGKAPKLLIYATSNLHSGVPSRFSGSGSGTDFTLTISSLQPEDFATYYCQQGFKWPLTFGGGTKLEIT | – | – | – | – | – | – | – | – | 0.472 | 0.000396 | 838000 | –
